assay: soluble on expression in E. coli; label from the status in PepcDB or PDB records

Row | Sequence | soluble on expression in E. coli
1 | MASYKGLIVDVNGRSHENNLAHRTREIDRERLIVRRGQPFSITLQCSDSLPPKHHLELVLHLGKRDEVVIKVQKEHGARDKWWFNQQGAQDEILLTLHSPANAVIGHYRLAVLVMSPDGHIVERADKISFHMLFNPWCRDDMVYLPDESKLQEYVMNEDGVIYMGTWDYIRSIPWNYGQFEDYVMDICFEVLDNSPAALKNSEMDIEHRSDPVYVGRTITAMVNSNGDRGVLTGRWEEPYTDGVAPYRWTGSVPILQQWSKAGVRPVKYGQCWVFAAVACTVLRCLGIPTRPITNFASAHDVDGNLSVDFLLNERLESLDSRQRSDSSWNFHCWVESWMSREDLPEGNDGWQVLDPTPQELSDGEFCCGPCPVAAIKEGNLGVKYDAPFVFAEVNADTIYWIVQKDGQRRKITEDHASVGKNISTKSVYGNHREDVTLHYKYPEGSQKEREVYKKAGRRVTEPSNEIAEQGRLQLSIKHAQPVFGTDFDVIVEVKNEGGRDAHAQLTMLAMAVTYNSLRRGECQRKTISVTVPAHKAHKEVMRLHYDDYVRCVSEHHLIRVKALLDAPGENGPIMTVANIPLSTPELLVQVPGKAVVWEPLTAYVSFTNPLPVPLKGGVFTLEGAGLLSATQIHVNGAVAPSGKVSVKLSFSPMRTGVRKLLVDFDSDRLKDVKGVTTVVVHKKYRSLITGLHTD | soluble
2 | MGSDKIHHHHHHMLSRTASELYWMARYLERAESLARVLDVTYKLSMMPRHSQQQHDLALPLNLTMTHELFQQRYAHFSMNNLLNFFALDSENPSSIYNCIEMAWNNAHAVRGSLSSEVWECINTTRIDIRNLRHQGVDNIGINEFFDWVKERSHLFRGAMFGTLLRNDAQCFIRIGTLIERACATAQLLNVKHQQLHNDPDPVREYYRLDTLLRAVSAREAYHSIYRQPISPETVTELLVLREDVPRSLHACVGDLVLQLEAIGSQRAKVPHRLAHLLHVELRFSTLDDVLAQDLPTYLNNFIIKINELADSIRHTYLEAL | not soluble
3 | MTAFRQRPLRLGHRGAPLKAKENTLESFRLALEAGLDGVELDVWPTRDGVFAVRHDPDTPLGPVFQVDYADLKAQEPDLPRLEEVLALKEAFPQAVFNVELKSFPGLGEEAARRLAALLRGREGVWVSSFDPLALLALRKAAPGLPLGFLMAEDHSALLPCLGVEAVHPHHALVTEEAVAGWRKRGLFVVAWTVNEEGEARRLLALGLDGLIGDRPEVLLPLGG | soluble
4 | MSTMQTELIIVSEYCQKCHIEPSFIEMLEEGGLINVRTEAGKHYLLVSELPNVERYSRMYYDLSINMEGIDAIHHMLERMDDMRREITSLRKQLLLFREREIEEADW | not soluble
5 | MKPARLSQTVVAPGCWGELPWGNYYREALEQQLNPWFAKMYGFHLLKIGNLSAEINSEACAVSHQVNVSSQGSPMQVLADPLHLPFADKSVDVCLLAHTLPWCTDPHRLLREADRVLIDDGWLVISGFNPLSLMGLRKLVPVLRKTPPYNSRMFTLMRQLDWLSLLNFEVLHYSRFHVLPWKKQGGRLLNTHIPALGCLQLIVARKRTIPLTLNPLRHNKSKTPIRQTVGATRQYRKPDG | not soluble
6 | MGNRKKKCGIVTFHSSHNYGSVLQAYAMVRVMQKMGLDAELIDFRHPRTTDMYEWRLWSTYKNWKWNLRELVLRGLFSFGKKREQVFSDFIENVLKKSKRVKDKNDIPDIYDILVCGSDQIWNPKASGENDPIYYLDFGTTTCKFSYAASSGSVRFGDENPELFKKYLQNLKSIGVRERFMQEYIKEELGLVSEINPDPTFLLNASEWSEIEKPYKGLPDNYLLIYTIKRPKETINFAHQVAVSLNLPTVQICNDRDLNALMHKDVDYRLMNVSPQQFLWLFHHASFIVTNTFHGNMFSVIYRKNFVHYGINSSDTRISTLHDEIRLKNKIVSSFEIDQRIIDYNLIEENVAYYCKCGLNFIQANINDD | not soluble
7 | MKPVSGSFSGYHPMATVSEQPVAKPRASESPQSESIEERPACLAPVAGAGQPLPGASSSLSAYLLLRRLDHRPVSQEGINALTPADEAVVEARNALPFGRGNVGVDAQKTDLESSIRTRSVMRLTRDAEAAGHTPMRGVDADMNWNVLVAMSGRIFGAGNCREHARIASFAYGGLAQESGRSSEEKIHLATKAGVDHVWVETDHPDADSSPMVIDPWANGSAILAEDSRFAKDRSAVTRTDTFDLSLAAEAGQIAKATAEEALAHTQGRLQQRLASERPDAVPLESGRYREEVSVLDDTFARRVGQKVNTADPRGMLNVELEAVGVAMSLGGEGVKPLTQEASQIVEKAKKFASPGGMPRDA | not soluble
8 | MGSDKIHHHHHHMFTSNQGAGRMNKEVGMDNPGLDVYLRDQKIGRLWLDDKRRFVFQYDSEWTHQKGAVPLSLHLPLREEIYPDDLARPFFSNLLPEAEVKRAIAQRLRISESNDFALLNSIGGECAGAVSVLPAGVAPAMKPGYRELSEEELHRIIIELPRRPLLAGVEGMRLSLAGAQNKLPVYMEDHRIFIATGNAPSSHILKPPIRDLEDTVGNEAFCMILAQRLGLQVPVVTIRRGLDRIFIIARYDRSRDTDGHIVRLHQEDFCQALGFLPEQKYENEGGPSLKQCFTLLQEKSIRPAADRMALLRWTIFNLLIGNDDAHAKNLAMIFTDRGPRLAPFYDLICTQVYPDLTEKQAMRIGGENRPSWILQKHWDRFSESTAIKPNLVLKTLKEMSAAIALAAQTLSSEFIKKYGTCTIIEEILAVIEKRAESV | not soluble
9 | KRGPSAVTVVTEQVETHEINQSLSLIGKLKAAESVVVASEVAGKVKQIAVKANQNVQQNQLLIQLDDDKAQAALVEAKAYLKDEERKLKEFQRLVKRNAITQTEIDAQKASVEIAQARLDAAKANLADLHITAPFSGTVGFIDFSRGKMVSAGTELLTLDDLSVMELDLQIPERYLSMLSVGMEVAAKTSAWGEQRFSGKVTGIDTRISAETLNLRVRIEFDNPENQLKPG | not soluble
10 | MGKYFGTDGVRGVANSELTPELAFKVGRFGGYVLTKDKQRPKVLIGRDTRISGHMLEGALVAGLLSIGAEVMRLGVISTPGVSYLTKAMDAEAGVMISASHNPVQDNGIKFFGGDGFKLSDEQEAEIERLMDEPEDKLPRPVGADLGLVNDYFEGGQKYLQFLKQTADEDFTGIHVALDCANGATSSLATHLFADLDADVSTMGTSPNGLNINDGVGSTHPEALSAFVKEKNADLGLAFDGDGDRLIAVDEKGNIVDGDQIMYICSKHLKSEGRLKDDTVVSTVMSNLGFYKALEKEGIKSVQTAVGDRYVVEAMKKDGYNVGGEQSGHLIFLDYNTTGDGLLSAIMLMNTLKATGKPLSELAAEMQKFPQLLVNVRVTDKYKVEENEKVKAVISEVEKEMNGDGRILVRPSGTEPLVRVMAEAKTKELCDEYVNRIVEVVRSEMGLE | not soluble
11 | MTSLSVNDRKDFVDGQMKYWRQIAESDGFDIDDVPVPRGTRAGLWSVDCKHPRFRLRACLPKIYAMVGLHRYNLLRGTNFEHLELLKYNESMNCVCSYYITSVAVDLSSQLQKTFQIRVDEKSFGDLDLTVSVARPNDEEKVTTEKRFIHHFHCEAAADDFYKGALPDWPSVGDLNNQKRFYMVKKCELQSNDWIRLYLELAVGVRYQQTSESDLSKLQVLKVAIETKEEDVQPPNRRLKSKSLHVYITFKGLAKAPIGDEIGEHVERKAIVRRVIDERSGHLTLLGGFSNAKNDLNQSSDDEQPFGKRRRI | soluble
12 | PDKEYHTLHWIIMGALSCATRTVQIMTPYFIPDRSLVSALVTTALRGVEVTLVLPEKNNLPFVHWATRAYLWELIQQGIRVFYQPPPFAHTKLFIVDGLWSMIGSANLDPRSLRLNFELNLEVYDRELAGTLSRHFAVTVARSRQVSLTEMDGR | not soluble
13 | MSLYHYFRPAQRSVFGDLMRDMAQMERQFTPVCRGSPSESSEIVNNDQKFAINLNVSQFKPEDLKINLDGHTLSIQGEQELKTEHGYSKKSFSRVILLPEDVDVGAVASNLSEDGKLSIEAPKKEAIQGRSIPIQQAPVEQKTSE | not soluble
14 | MIDSIRVEGFRGLKELELSSLRRINVIVGRNNSGKSTLLEALSLFLGSSDPGTFGNVLHEILIWRGWYGIQTVDDLFYNGGDSFSISSTGKTLEALNSKHSLEFKLNGEPFYKIDRESIRRLASQAVLLARFSPKENFEFLTPLTFRRFGYAESLYSYAYERKVVKDSIKVLNEAYPEVEGFSPLLKEDNWVLYVETKYGVYPYYLMGEGFKSAMIISFLSSLLRDGVLLIDSAEAFHHPKSLKVMIQTLVRGSEKNNVQVFLTTHSLELLDLMLEMGRDGFVIYMKNVEGRIEVESIEFQRASELRESIGVDLRGFLEHHHHHH | soluble

— the DeepSol protein solubility set
